This note sets out measurements from patent US20170128596A1, “Peptide-Based Compounds and Their Uses for Tumor Imaging and Targeting” (Klinikum rechts der lsar der Technischen Universitaet …, priority 2014, published 2017).

The nature of data set [1]: Toxicity testing in healthy and tumor-bearing BALB/c mice.
Protocol: Concentrations up to 500 μg of TPP per mouse were tested in tumor-bearing mice (s.c. tumors, size 0.4 cm^3). The health status and the general behavior of mice were inspected. Animals were sacrificed on day 5 and the heart, liver, spleen, lung and kidneys examined for pathological changes using standard histological techniques.
Data set [2] can be described thus: Ex vivo biodistribution in CT26 tumor-bearing mice by NIRF quantification. To be noted: i.v. More on the design: species or system mouse. The protocol: Regression equation of linear regression analysis (lower panel). The concentration of TPP[Cy5.5] in organs was calculated using this regression equation. Scale bar, 5 mm.
For biodistribution tumor-bearing mice were sacrificed 12, 24 or 48 h after i.v. injection of TPP[Cy5.5]. Fluorescent signal intensities of 0.25 cm^3 tissue cubes, taken from the tumor, spleen, pancreas, liver, lung, duodenum, kidney, heart, and 0.25 ml of peripheral blood were measured as described above. Agarose-gel cubes with standardized concentrations were used to calculate the probe concentrations in the investigated tissue samples.
After the mice had been sacrificed, the contents of TPP[Cy5.5] in the tumors and organs (spleen, pancreas, liver, lung, duodenum, kidney, heart and blood) were assessed. […] Fluorescence intensities of the tissues were measured as described in the imaging procedures chapter. Quantification of the Cy5.5 contents in the defined tissue volumes was calculated using fluorescence signal intensities of standards with defined concentrations. […] Fluorescence signal intensity was measured using the same instrument settings than for the tissue specimen (FIG. 10, upper panel). […] Linear regression equation of the standards was calculated with Microsoft Excel 2007 (FIG. 10, lower panel). The concentration of TPP[Cy5.5] in organs was calculated using the regression equation.

The subject of data set [3] is MCF7, MDA-MB-231, T47D cells. As to the kind of experiment: Peptide uptake into human breast cancer cell lines by confocal microscopy. The format is cell-based. To be noted: 30 min at 37° C. The protocol:
Human breast cancer cell lines (MCF7, MDA-MB-231, T47D) expressing different levels of membrane Hsp70 were incubated with CF-TPP or a scrambled peptide for 30 min at 37° C. and internalization of the peptides was imaged by confocal microscopy.

For data set [4], the target named is membrane-bound Heat shock protein 70 (Hsp70) on human tumor cells (human) (UniProt P0DMV8). As to the kind of experiment: flow cytometry, single cell suspension of in vivo-grown H-1339 human lung tumor. A general note: Flow cytometry measures light scatter and fluorescence of single cells or particles in a stream.
The target in data set [5] is membrane-bound Heat shock protein 70 (Hsp70) on murine tumor cells (mouse) (UniProt Q61696). As to the kind of experiment: flow cytometry, single cell suspension of CAC murine colon tumor.
Data set [6] deals with membrane-bound Heat shock protein 70 (Hsp70) on human tumor cells (human) (UniProt P0DMV8). As to the kind of experiment: flow cytometry, single cell suspension of in vivo-grown MIA PaCa-2 human pancreas tumor.
Data set [7] deals with membrane-bound Heat shock protein 70 (Hsp70) on murine tumor cells (mouse) (UniProt Q61696). As to the kind of experiment: flow cytometry, single cell suspension of in vivo-grown CT26 murine colon tumor.
In data set [8] the target is membrane-bound Heat shock protein 70 (Hsp70) on human tumor cells (human) (UniProt P0DMV8). As to the kind of experiment: flow cytometry, single cell suspension of in vivo-grown CX-2 human colon tumor.
Data set [9] concerns the target membrane-bound Heat shock protein 70 (Hsp70) on murine tumor cells (mouse) (UniProt Q61696). The experiment in a line: flow cytometry, single cell suspension of in vivo-grown 4T1 murine mammary tumor.
The target in data set [10] is membrane-bound Heat shock protein 70 (Hsp70) on human tumor cells (human) (UniProt P0DMV8). The experiment in a line: flow cytometry, single cell suspension of in vivo-grown MCF-7 human mammary tumor.
Data set [11] shares this target. As to the kind of experiment: flow cytometry, single cell suspension of in vivo-grown MDA-MB231 human mammary tumor.
The target is the same in data set [12]. As to the kind of experiment: flow cytometry, single cell suspension of in vivo-grown COLO357 human pancreas tumor.
For data set [13] the target is unchanged. As to the kind of experiment: flow cytometry, single cell suspension of in vivo-grown Cal-33 human head & neck tumor.
Data set [14] has the same target. As to the kind of experiment: flow cytometry, single cell suspension of in vivo-grown Panc-1 human pancreas tumor.
Data set [15] has the same target. As to the kind of experiment: flow cytometry, single cell suspension of in vivo-grown A549 human lung tumor.
Data set [16] shares this target. As to the kind of experiment: flow cytometry, single cell suspension of in vivo-grown T-47D human mammary tumor.
In data set [17] the target is membrane-bound Heat shock protein 70 (Hsp70) on murine tumor cells (mouse) (UniProt Q61696). The experiment in a line: flow cytometry, single cell suspension of PDAC murine pancreas tumor.
Data set [18] has as its target membrane-bound Heat shock protein 70 (Hsp70) on human tumor cells (human) (UniProt P0DMV8). The experiment in a line: flow cytometry, single cell suspension of in vivo-grown FaDu human head & neck tumor.
For data set [19] the target is unchanged. As to the kind of experiment: flow cytometry, single cell suspension of in vivo-grown HCT-116 human colon tumor.
For data set [20] the target is unchanged. The experiment in a line: flow cytometry, single cell suspension of in vivo-grown HeLa human cervix tumor.

Sequence of membrane-bound Heat shock protein 70 (Hsp70) on murine tumor cells (mouse) (Q61696 2-641): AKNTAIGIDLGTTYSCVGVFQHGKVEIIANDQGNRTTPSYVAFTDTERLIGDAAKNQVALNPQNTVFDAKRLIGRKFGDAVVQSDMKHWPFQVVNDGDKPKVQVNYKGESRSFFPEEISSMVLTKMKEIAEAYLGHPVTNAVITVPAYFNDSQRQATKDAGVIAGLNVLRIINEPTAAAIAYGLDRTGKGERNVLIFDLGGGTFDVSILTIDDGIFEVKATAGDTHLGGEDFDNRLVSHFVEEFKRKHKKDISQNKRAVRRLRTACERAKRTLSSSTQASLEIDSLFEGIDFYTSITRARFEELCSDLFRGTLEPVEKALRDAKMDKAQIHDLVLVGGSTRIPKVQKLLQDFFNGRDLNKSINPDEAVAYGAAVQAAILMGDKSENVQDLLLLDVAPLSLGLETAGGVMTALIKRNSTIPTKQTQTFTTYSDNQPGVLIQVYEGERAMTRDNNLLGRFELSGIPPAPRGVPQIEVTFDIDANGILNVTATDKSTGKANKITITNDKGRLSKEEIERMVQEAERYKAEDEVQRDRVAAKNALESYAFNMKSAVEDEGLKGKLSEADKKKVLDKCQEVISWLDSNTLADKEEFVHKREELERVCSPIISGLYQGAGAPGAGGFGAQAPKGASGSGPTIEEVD
Sequence of membrane-bound Heat shock protein 70 (Hsp70) on human tumor cells (human) (P0DMV8 2-641): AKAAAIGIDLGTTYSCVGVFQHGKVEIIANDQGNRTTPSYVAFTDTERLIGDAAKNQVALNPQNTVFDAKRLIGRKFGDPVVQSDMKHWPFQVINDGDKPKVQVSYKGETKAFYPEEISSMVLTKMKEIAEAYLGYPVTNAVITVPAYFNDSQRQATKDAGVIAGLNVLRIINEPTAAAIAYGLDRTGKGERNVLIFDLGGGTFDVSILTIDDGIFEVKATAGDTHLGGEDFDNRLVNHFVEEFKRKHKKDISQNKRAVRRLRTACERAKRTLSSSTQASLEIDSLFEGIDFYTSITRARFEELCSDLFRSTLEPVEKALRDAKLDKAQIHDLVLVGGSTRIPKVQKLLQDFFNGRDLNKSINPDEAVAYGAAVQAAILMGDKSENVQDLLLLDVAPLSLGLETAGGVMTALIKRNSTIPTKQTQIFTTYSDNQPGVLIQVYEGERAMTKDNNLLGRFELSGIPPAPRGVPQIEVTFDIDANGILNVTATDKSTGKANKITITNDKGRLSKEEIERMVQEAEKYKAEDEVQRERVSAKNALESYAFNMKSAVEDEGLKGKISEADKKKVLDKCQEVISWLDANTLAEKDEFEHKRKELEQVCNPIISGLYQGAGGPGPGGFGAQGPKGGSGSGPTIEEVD

On to `CC(C)C[C@H](NC(=O)[C@H](CC(C)C)NC(=O)[C@H](CC(N)=O)NC(=O)[C@H](CC(N)=O)NC(=O)[C@H](CC(=O)O)NC(=O)[C@H](CCCCN)NC(=O)[C@@H](N)[C@@H](C)O)C(=O)NCC(=O)N[C@@H](CCCNC(=N)N)C(=O)N[C@@H](Cc1ccccc1)C(=O)N[C@@H](CCC(=O)O)C(=O)N[C@@H](CC(C)C)C(=O)N[C@@H](CO)C(=O)NCC(=O)O` [TPP, TKDNNLLGRFELSG], for which the “loss of weight or change in mobility” value in data set [1] (BALB/c mice, i.v. 500 to 1050 μg) was “Nor did any animal exhibit any loss of weight or change in mobility”. The “gross monitoring for toxic reactions (skin ulcerations, toxic death)” value in data set [1] (BALB/c mice, i.v. 500 to 1050 μg (25 to 50 μg/g)) is listed as “did not show any toxic reactions”. Moreover, the “histological examination of heart, liver, spleen, lung and kidney” value in [1] (day 5 after injection) is recorded as “no pathological changes”. Besides, the “side effects in tumor-bearing mice” value in data set [1] (up to 500 μg per mouse) is listed as “did not exert any side effects”. The route of clearance entry in data set [2] is reported as “cleared from the body by renal excretion”.

“NGLTLKNDFSRLEG (scrambled control peptide)”: in [3], the “internalization into tumor cells” value is on record as “not internalized”.

As for “cmHsp70.1 monoclonal antibody (FITC-conjugated for flow cytometry)”, the % membrane-positive cells in data set [4] is 60%; in [5] it was 51.2%; in data set [6] it was 58.5%; in [7], 55.5%; in data set [8], 56.6%; in [9], 56.3%. Further, the % membrane-positive cells in data set [10] is 58%; in data set [11] it was 63.3%; in [12], 57.8%; in [13] it was 68.1%; in [14], 46%; in data set [15], 76.3%. The % membrane-positive cells stood at 48% in data set [16]; 50% in [17]; 59% in [18]; 63.3% in data set [19]; 55% in [20].
